Assay results as given in the nanobody polyreactivity screen of Harvey et al. (2022).

Assay: yeast display, Sf9 membrane polyspecificity reagent, FACS + sequencing; frameworks hold sequencing errors
Summary of the method: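 After 36–48 hours of galactose induction, yeast (Saccharomyces cerevisiae BJ5465) displaying a synthetic nanobody library were stained at 4 °C for 1 hour with 10% biotinylated, detergent-solubilized Sf9 membrane reagent. Streptavidin microbeads enriched the stained cells before FACS sorting into low and high (top ~1%) gates on anti-HA and streptavidin fluorescence. Each clone's polyreactivity label reflects its gate of origin.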
For “QVQLVESGGGLVQAGGSLRLSCAASGNTFRYYAMGWYRQAPGKERELVAAINRSGGRTYYADSVKGRFTISRDNAKNTVYLQMNSLKPEDTAVYYCARSIRYGRGVYKGGYWGQGTQVTVSS”, the “polyreactivity (PSR sort gate)” value was “high polyreactivity”.
For “QVQLVESGGGLVQAGGSLRLSCAASGNTFRYYAMGWYRQAPGKERELVAAISESGGRTYYADSVKGRFTISRDNAKNTVYLQMNSLNPEDTAVYYCAASRWARTWWYGYNYWGQGTQVTVSS”, the “polyreactivity (PSR sort gate)” value was “high polyreactivity”.
In the case of “QVQLVESGGGLVQAGGSLRLSCAASGNTFSGNAMGWYRQAPGKQRELVATINSGGGSTNYADSVTGRFSISRDNAKNTVYLQMNSLKPEDTAGYYCAASAYTWRGIDSSYLTVTYDYWGQGTQVTVSS”, the “polyreactivity (PSR sort gate)” value is reported as “low polyreactivity”.
In the case of “QVQLVESGGGLVQAGGSLRLSCAASGNTFSNYAMGWYRQAPGKERELVAAISRSGGRTYYADSVKGRFTISRDNAKNSVYLKMNSLKPEDTAVYDCIATSNGESYYWGQGTQVTVSS”, the “polyreactivity (PSR sort gate)” value is reported as “high polyreactivity”.
With “QVQLVESGGGLVQAGGSLRLSCAASGNTFSPYVMGWYRQAPGKERELVAAISKGGGSTYYADSVKGRFTISRDNAKNTVYLQMNSLKPEDTAVYYCAASAGPRASYYYWGQGTQVTVSS” the “polyreactivity (PSR sort gate)” value was “high polyreactivity”.
In the case of “QVQLVESGGGLVQAGGSLRLSCAASGNTFTSYAMGWYRQAPGKERELVAAISASGSSTYYADSVKGRFTISRDNAKNTVYLQMNSLKPEDTAVYYCNAVKYRVESSYDYWGQGTQVTVSS”, the “polyreactivity (PSR sort gate)” value is reported as “low polyreactivity”.
For “QVQLVESGGGLVQAGGSLRLSCAASGNTFTTYAMGWYRQAPGKERELVAAISRRGGSTYYADSVKGRFTISRDNAKNTVYLQMNSLKPDDTAVYYCARRYFYTYGYWGQGTQVTVSS”, the “polyreactivity (PSR sort gate)” value was “high polyreactivity”.
In the case of “QVQLVESGGGLVQAGGSLRLSCAASGNTFTVNAMGWYRQAPGKERELVAAINYSGGSTYYADSVKGRFTISRDNAKNTVYLQMNSLKPEDTAVYYCAASPDELLYEMYYWGQGTQVTVSS”, the “polyreactivity (PSR sort gate)” value is reported as “low polyreactivity”.
With “QVQLVESGGGLVQAGGSLRLSCAASGNTFVAYAMGWYRQAPGKERELVAGITRGGTTYYADSVKGRFTISRDNAKNTVYLQMNSLKPEDTAVYYCAARLGYRYNYWGQGTQVTVSS” the “polyreactivity (PSR sort gate)” value was “high polyreactivity”.
In the case of “QVQLVESGGGLVQAGGSLRLSCAASGNTFVDYAMVWYRQAPGKERELVAAIDQTGGSTYYADSVKGRFTISRDNAKNTVYLQMNSLKPEDTAVYYCARDLAYRKDLYPRWYDYWGQGTQVTVSS”, the “polyreactivity (PSR sort gate)” value is reported as “low polyreactivity”.
With “QVQLVESGGGLVQAGGSLRLSCAASGNTFVPYVMGWYRQAHGKERELVAAISRRGGSTRYADSVKGRFTISRDNAKNTVYLQMNSLKPEDTAVYYCAADGYVFALQRSRGVDFGYEYWGQGTQGTVSS” the “polyreactivity (PSR sort gate)” value was “high polyreactivity”.
With “QVQLVESGGGLVQAGGSLRLSCAASGNTFWYYAMGWYRQAPGKEREFVAAISRRGTTTYYADSVKWRFTISRDNAKNTVYLQMNSLKPEDTAVYYCAARRYVSVFRVSATGLDLGYWGQGTQVTVSS” the “polyreactivity (PSR sort gate)” value was “high polyreactivity”.
For “QVQLVESGGGLVQAGGSLRLSCAASGNTFWYYAMGWYRQAPGKERELVAAISWDGGITYYADSVKGRFTISRDNAKNTVFLQMNRLKPEDTAVYYCATLIPRKGSRYYHRGYWGQGTQLTVSS”, the “polyreactivity (PSR sort gate)” value was “high polyreactivity”.
In the case of “QVQLVESGGGLVQAGGSLRLSCAASGNTFYDNAMGWYRQTPGKERELVAAISYNDGDTYYADSVKGRFTISRDNAKNTVYLQMNSLKPEDTAVYFCAAVVRRVRGARGQEGDNYWGQGTQVTVSS”, the “polyreactivity (PSR sort gate)” value is reported as “high polyreactivity”.
In the case of “QVQLVESGGGLVQAGGSLRLSCAASGNTFYGYAMGWYRPAPGKERELVASITLSGDSTYYADSVKGRFTISRDNAKNTVYLQMNSLKPEDTAVYYCAGVYTYPLGYYHYTYDYWGQGTQVTVSS”, the “polyreactivity (PSR sort gate)” value is reported as “low polyreactivity”.
In the case of “QVQLVESGGGLVQAGGSLRLSCAASGNTFYGYAMGWYRQAPGKERELVASITLSGDSTYYADSVKGRFTISRDNAMNTVYLQMNSLKPEYTAVYYCAGVYTYPLGYYHYTYDYWGQGTQVTVSS”, the “polyreactivity (PSR sort gate)” value is reported as “low polyreactivity”.
With “QVQLVESGGGLVQAGGSLRLSCAASGNTFYKYAMGWYRQAPGKERELVADISWSGGSTYYADSVKGRFTISRDNAKNTVYLQMNSLKPEDTAVYYCNADTPVWDGHAYPVDYWGQGTQVTVSS” the “polyreactivity (PSR sort gate)” value was “low polyreactivity”.
With “QVQLVESGGGLVQAGGSLRLSCAASGNTFYRNAMGWSRQAPGKERELVAAIDYSAGSTYYADSVKGRFTISRDNAKNTVYLQMNSLKPEDTAVYYCAADARTSRGRRYYYWGQGTQVTVSS” the “polyreactivity (PSR sort gate)” value was “low polyreactivity”.
For “QVQLVESGGGLVQAGGSLRLSCAASGNTFYRYAMGWYRQAPGKERELVAAISWSGSSTYYADSVKGRFTISRDNAKNTVYLQMNSLKPEDTAVYYCAAGTYDGGYHYDYWGQGTQVTVSS”, the “polyreactivity (PSR sort gate)” value was “high polyreactivity”.
With “QVQLVESGGGLVQAGGSLRLSCAASGNTFYVNVMGWYRQAPGKEREFVAAISTRGVSTSYADSVKGRVTISRDNAKNTVYLQMNSLKPEDTAVYYCAASFRRPQPKGSTYGYWGQGTQVTVSS” the “polyreactivity (PSR sort gate)” value was “high polyreactivity”.
In the case of “QVQLVESGGGLVQAGGSLRLSCAASGNTFYVNVMGWYRQAPGKERELVARITTSGGSTSYADSVKGRFTISRDNAKNTVYLQMNSLKPEDTAVYYCAADFPEYYLPYDYWGQGTQVTVSS”, the “polyreactivity (PSR sort gate)” value is reported as “low polyreactivity”.
For “QVQLVESGGGLVQAGGSLRLSCAASGNTFYWNAMGWYRQAPGKERELVAAISTTGVSTYYADSVKGRFTISRDNAKNTVYLQMNSLKPEDTAVYYCAAEIIGYHTIYDYWGQGTQVTVSS”, the “polyreactivity (PSR sort gate)” value was “low polyreactivity”.
In the case of “QVQLVESGGGLVQAGGSLRLSCAASGNTFYYAKAWYRQAPGKERELVASIRTGGSTNYADSVKGRFTISRDNAKNTVYLQMNSLKPEDTAVYYCNRDGTYTHTGWDYWRPYEYWGQGTQVTVSS”, the “polyreactivity (PSR sort gate)” value is reported as “low polyreactivity”.
For “QVQLVESGGGLVQAGGSLRLSCAASGNTFYYNAMGWYRQAPGKEREFVATITESGTSTYYADSVKGRFTISRDNAKNTVYLQMNSLKPEDTAVYYCAAQYWYVGGIAWYDYWGQGTQVTVSS”, the “polyreactivity (PSR sort gate)” value was “low polyreactivity”.
With “QVQLVESGGGLVQAGGSLRLSCAASGNTFYYYAMGWYRQAPGKERELVASITSTARTYYADSVKGRFTISRDNAKNTVYLQMNSLKPEDTAVYYCNAKEHYATRSDSWGEGTQVTVSS” the “polyreactivity (PSR sort gate)” value was “high polyreactivity”.
In the case of “QVQLVESGGGLVQAGGSLRLSCAASGNTIFPSTMGWYRQAPGKEREFVAAMTWSGVSTYYADSVKGRFTISRDNAKNTVYLQMNSLKPEDTAVYYCAARGPVYVSYPRQYGYWGQGTQVTVSS”, the “polyreactivity (PSR sort gate)” value is reported as “high polyreactivity”.
In the case of “QVQLVESGGGLVQAGGSLRLSCAASGNTIIRYAMGWYRQAPGKERELVAAISYSGGRTYYADSVKGRFTISRDNAKNTVYLQMNSLKPEDTAVYYCAARYYPSGYRKKMYYWGQGTQVTVSS”, the “polyreactivity (PSR sort gate)” value is reported as “high polyreactivity”.
In the case of “QVQLVESGGGLVQAGGSLRLSCAASGNTITFNTMAWYRQAPGKEREVVAVISRSGGSTYYADSVKGRFTISRDNAKNTVYLQMNSLKPEDTAVYYCAATGFSYRYFQTRDYWGQGTQVTVSS”, the “polyreactivity (PSR sort gate)” value is reported as “high polyreactivity”.
For “QVQLVESGGGLVQAGGSLRLSCAASGNTITWNTMGWYRQAPGKERELVAVITSDGSTYYADSVKGRFTISRDNAKNSVYLQMNRLKPEDTSVYYCNALCAEWYPEEDYWGQGTQVTVSS”, the “polyreactivity (PSR sort gate)” value was “low polyreactivity”.
In the case of “QVQLVESGGGLVQAGGSLRLSCAASGNTLDAYAMGWYRQAPGKERELVASITYRGGSTYYADSVKGRFTISRDNAKNTVYLQMNSLKPEDTAVYYCAAAYQKSPITPKMDYWGQGTQVTVSS”, the “polyreactivity (PSR sort gate)” value is reported as “low polyreactivity”.
